Read-outs that look alike come from different tables or passages of the source. One block for each molecule: values may come before it. Square brackets hold non-standard residues; d marks the D form. Ends that are not written are not given here. Phe(4-F) = N[C@@H](Cc1ccc(F)cc1)C(=O)O; Gla = N[C@@H](CC(C(=O)O)C(=O)O)C(=O)O; Cha = N[C@@H](CC1CCCCC1)C(=O)O; hLeu = CC(C)CC[C@H](N)C(=O)O
How the values were obtained:
IL-6 signaling = IL-6 signaling (Homo sapiens, UniProt P05231); test: IL-6 Bioassay (Promega), luciferase reporter cells, inhibition of IL-6-induced cell signaling; format: cell-based; details: peptides incubated with IL-6 for 10 min, IL-6 0.5 nM, cells 6 hours
Experimental: To verify the ability of the peptides of the invention to inhibit IL-6-signaling, they were tested with the IL-6 Bioassay Kit (Promega). This kit includes human cells engineered to express the IL-6 receptor and a luciferase reporter driven by a response element. When IL-6 binds, the IL-6R transduces intracellular signals resulting in luminescence (fluorescence). Inhibition of IL-6 interaction with the receptor leads to the decrease of the luciferase expression and lower fluorescence.
The selected peptides were incubated with IL-6 for 10 min before being added to cell culture medium. […] Peptides 27 (2), 38 (2) and 45 (2) were also tested.
The ability of peptides to inhibit IL-6 signaling pathway was tested with the IL-6 Bioassay from Promega (cat #JA2501). The bioluminescent signal is detected and quantified using Bio-Glo™ Luciferase Assay System. Different concentrations of the test peptides were mixed with IL-6 (0.5 nM) and added to the IL-6 Bioassay Cells according to the manufacturer's instructions. Cells were incubated for 6 hours in a humidified incubator at 37° C. and 5% CO2 concentration. Following incubation, 75 microliters of the Bio-Glo™ Reagent was added to the cell culture and the luminescence was measured with a Biotek Synergy HTX plate reader. Data was analyzed according to manufacturer's recommendations.

[1] = target: T1, Biotinylated recombinant human IL-6 (human, UniProt P05231 30-212, biotinylated (sites not given)); test: SPR (Biacore), IL-6 on chip
T1 construct: In the cell bioassay IL-6 (0.5 nM) was used in solution; also called Interleukin-6; IL-6-Biotin

[2] = target: T1, Biotinylated recombinant human IL-6; test: cell-based or functional assay
[3] = target: T1, Biotinylated recombinant human IL-6; test: SPR (Biacore), IL-6 on chip; remark: listed apart in the source

Chain of IL-6 signaling (P05231 30-212): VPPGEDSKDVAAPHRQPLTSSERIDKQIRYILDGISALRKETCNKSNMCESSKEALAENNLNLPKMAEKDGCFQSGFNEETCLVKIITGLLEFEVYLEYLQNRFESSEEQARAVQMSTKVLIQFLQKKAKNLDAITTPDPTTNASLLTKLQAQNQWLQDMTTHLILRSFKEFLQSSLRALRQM

B1: Peptide 80 (peptide)
peptide: Ac-FSFRDLLRMMCHIVG-NH2
Kd [1]: 249 nM

B6: Peptide 45 (2) (peptide)
peptide: Ac-FAFRDLLRRMCHIVG-NH2
Kd [1]: 147 nM | IC50, inhibition of IL-6-induced cell signaling (IL-6 Bioassay, luciferase reporter cells) [2]: 72 nM

B7: Peptide 45 (peptide)
peptide: FAFRDLLRRMCHIVG
notes: termini not protected
Kd [3]: 92 nM

B12: Peptide 58 (peptide)
peptide: Ac-FAFRDLIRMMCHIVG-NH2
notes: also called variant 58
Kd [1]: 71 nM

B14: Peptide 54 (peptide)
peptide: Ac-ASVRDLLRRMCHIVG-NH2
Kd [1]: 422 nM

B15: Peptide 49 (peptide)
peptide: SVRDLLRRMCVFWG
notes: termini not protected
binding result [3]: no binding (tested: 20 µM highest peptide concentration)

B16: Peptide 39 (peptide)
peptide: SVRDANYRMCHIVG
notes: termini not protected
binding result [3]: no binding (tested: 20 µM highest peptide concentration)

B17: Peptide 47 (peptide)
peptide: SVRDLQSTMCHIVG
notes: termini not protected
binding result [3]: no binding (tested: 20 µM highest peptide concentration)

B18: Control peptide PN-2519 (peptide)
peptide: FD[Cha]DIHLL[Phe(4-F)]LPTEWEK[Gla]KNEE
notes: Printed FD(Cha)DIHLL(4F)LPTEWEK(Cla)KNEE; tested in a linear form
binding result [1]: no binding (tested: 20 µM highest peptide concentration)

B19: Peptide 53 (peptide)
peptide: Ac-ATIRDLLRRMKVCVG-NH2
Kd [1]: 436 nM

B20: Peptide 44 (peptide)
peptide: H-SVRDLQKQMCHIVG-OH
notes: Printed SVRDLQKOMCHIVG (the letter O is as printed, perhaps a misprint); termini not protected
binding result [3]: no binding (tested: 20 µM highest peptide concentration)

B21: Control peptide RA07 (peptide)
peptide: INTLLSEINSILLDIISLL
notes: published peptide (Kobayashi et al. 2011) synthesized by the inventors; whether its termini were protected is not clear
binding result [1]: no binding (tested: 20 µM highest peptide concentration)

B22: Peptide 48 (peptide)
peptide: SVRDWTPRMCHIVG
notes: termini not protected
Kd [3]: 2820 nM

B23: Peptide 52 (peptide)
peptide: Ac-ATIRDLLSHNCHIVG-NH2
binding result [1]: no binding (tested: 20 µM highest peptide concentration)

B25: Peptide 37 (peptide)
peptide: SVRDLPTQMCHIVG
notes: termini not protected
Kd [3]: 649 nM

B26: Peptide 60 (peptide)
peptide: Ac-FAFRDLLRRMKVCVG-NH2
binding result [1]: no binding (tested: 20 µM highest peptide concentration)

B27: Control peptide PN-1974 (peptide)
peptide: H-FD[hLeu]DIHLLFLPTEWEKDKNEE-OH
SMILES: CC[C@H](C)[C@H](NC(=O)[C@H](CC(=O)O)NC(=O)[C@H](CCC(C)C)NC(=O)[C@H](CC(=O)O)NC(=O)[C@@H](N)Cc1ccccc1)C(=O)N[C@@H](Cc1c[nH]cn1)C(=O)N[C@@H](CC(C)C)C(=O)N[C@@H](CC(C)C)C(=O)N[C@@H](Cc1ccccc1)C(=O)N[C@@H](CC(C)C)C(=O)N1CCC[C@H]1C(=O)N[C@H](C(=O)N[C@@H](CCC(=O)O)C(=O)N[C@@H](Cc1c[nH]c2ccccc12)C(=O)N[C@@H](CCC(=O)O)C(=O)N[C@@H](CCCCN)C(=O)N[C@@H](CC(=O)O)C(=O)N[C@@H](CCCCN)C(=O)N[C@@H](CC(N)=O)C(=O)N[C@@H](CCC(=O)O)C(=O)N[C@@H](CCC(=O)O)C(=O)O)[C@@H](C)O
notes: linear, termini not protected
Kd [1]: 61 nM

B28: Peptide 35 (peptide)
peptide: CVYRDLLRRMCHIVG
notes: termini not protected
binding result [3]: no binding (tested: 20 µM highest peptide concentration)

B29: Peptide 9 (peptide)
peptide: SVRDLLRRMCHIVG
notes: linear, N and C termini not protected; also called 9 (parent); parent peptide 9
Kd [3]: 2580 nM

B32: Peptide 27 (2) (peptide)
peptide: Ac-SVRDLLRRMKVCVG-NH2
IC50, inhibition of IL-6-induced cell signaling (IL-6 Bioassay, luciferase reporter cells) [2]: 580 nM

B38: Peptide 27 (peptide)
peptide: SVRDLLRRMKVCVG
notes: termini not protected
Kd [3]: 58 nM

B39: Peptide 33 (peptide)
peptide: SVRDLIRMMCHIVG
notes: termini not protected; also called variant 33
Kd [3]: 545 nM

B40: Peptide 67 (peptide)
peptide: Ac-SVRDLLRRMCHCVG-NH2
modifications: cysteine pairing not given here
binding result [1]: no binding (tested: 20 µM highest peptide concentration)

B41: Control peptide CA11 (peptide)
peptide: NQQLIEEIIQILHKIFEIL
notes: as for B21
Kd [1]: 50800 nM

B42: Peptide 59 (peptide)
peptide: Ac-FAFRDLLSHNCHIVG-NH2
binding result [1]: no binding (tested: 20 µM highest peptide concentration)

B43: Peptide 28 (peptide)
peptide: ACMDLLRRMCHIVG
notes: termini not protected
Kd [3]: 2730 nM

B44: Control peptide C1 (peptide)
peptide: SVKDLQHGLRHVVG
notes: homologous to peptide 9 without its mutations (two unmutated fragments of IL-6R); whether its termini were protected is not clear
binding result [1]: no binding (tested: 20 µM highest peptide concentration)

B45: Peptide 43 (peptide)
peptide: SVRDLLSHNCHIVG
notes: termini not protected
binding result [3]: no binding (tested: 20 µM highest peptide concentration)

B46: Peptide 24 (peptide)
peptide: ETIRDLLRRMCHIVG
notes: termini not protected
Kd [3]: 119 nM

B47: Peptide 38 (peptide)
peptide: ATIRDLLRRMCHIVG
notes: termini not protected
Kd [3]: 54 nM

B48: Peptide 51 (peptide)
peptide: Ac-ATIRDLIRMMCHIVG-NH2
notes: also called peptide variant 51
Kd [1]: 128 nM

B50: Peptide 38 (2) (peptide)
peptide: Ac-ATIRDLLRRMCHIVG-NH2
Kd [1]: 115 nM | IC50, inhibition of IL-6-induced cell signaling (IL-6 Bioassay, luciferase reporter cells) [2]: 142 nM

The remaining lines, values ahead:

IC50 (IL-6 signaling): 1200 nM
Molecule: Ac-SFRDLIRMMKVCVG-NH2 [Peptide 90, SFRDLIRMMKVCVG]

Kd [1]: 132 nM
B2: Peptide 75 (peptide)
peptide: Ac-FAFRDLLRMMCHIVG-NH2

Kd [1]: 144 nM
B3: Peptide 61 (peptide)
peptide: Ac-FSVRDLLRRMCHIVG-NH2

Kd [1]: 47 nM
B4: Peptide 87 (peptide)
peptide: Ac-FSVRDLIRMMKVCVG-NH2

Kd [1]: 265 nM
B5: Peptide 93 (peptide)
peptide: Ac-FSFRDLIRMMKVCVG-NH2

Kd [1]: 1270 nM
B8: Peptide 81 (peptide)
peptide: Ac-FSFRDLLRMMKVIVG-NH2

IC50, inhibition of IL-6-induced cell signaling (IL-6 Bioassay, luciferase reporter cells) [2]: 23.5 nM
B9: Peptide 72 (peptide)
peptide: Ac-FSFRDLLRRMCHIVG-NH2

Kd [1]: 1300 nM
B10: Peptide 76 (peptide)
peptide: Ac-FAFRDLIRMMKVIVG-NH2

Kd [1]: 1490 nM
B11: Peptide 78 (peptide)
peptide: Ac-FAFRDLIRMMCVIVG-NH2

Kd [1]: 405 nM
B13: Peptide 77 (peptide)
peptide: Ac-FAFRDLIRMMKHIVG-NH2

Kd [1]: 1390 nM
B24: Peptide 64 (peptide)
peptide: Ac-SVRDLIRMMKVCVG-NH2

Kd [1]: 172 nM
B30: Peptide 69 (peptide)
peptide: Ac-SVRDLLRMMCHIVG-NH2

Kd [1]: 1130 nM
B31: Peptide 73 (peptide)
peptide: Ac-SVRDLLRRMKVIVG-NH2

Kd [1]: 150 nM
B33: Peptide 65 (peptide)
peptide: Ac-SVRDLLRRMKHIVG-NH2

Kd [1]: 724 nM
B34: Peptide 68 (peptide)
peptide: Ac-SVRDLIRRMCHIVG-NH2

Kd [1]: 49 nM | IC50, inhibition of IL-6-induced cell signaling (IL-6 Bioassay, luciferase reporter cells) [2]: 3400 nM
B35: Peptide 71 (peptide)
peptide: Ac-TIRDLLRRMCHIVG-NH2

Kd [1]: 565 nM
B36: Peptide 84 (peptide)
peptide: Ac-TIRDLLRMMKVIVG-NH2

Kd [1]: 283 nM
B37: Peptide 66 (peptide)
peptide: Ac-SVRDLLRRMCVIVG-NH2

IC50, inhibition of IL-6-induced cell signaling (IL-6 Bioassay, luciferase reporter cells) [2]: 183 nM
B49: Peptide 82 (peptide)
peptide: Ac-ATIRDLIRMMKVCVG-NH2
